Assay results reported in publication PMC6697678.

Biological target: recombinant human soluble FcγRIIIa glycoprotein with a C-terminal hexahistidine tag (N-glycosylation sites kept at Asn45 and Asn162 only) (human)
Assay: high-speed atomic force microscopy (HS-AFM), bound-state dwell time

Row | Substance | dwell time [s] | stoichiometry N
1 | trastuzumab, anti-HER2 humanized IgG1 (G1m17,1; Km3) (antibody) | 1 | 1
2 | rituximab, anti-CD20 mouse/human-chimeric IgG1 (G1m17,1; Km3) (antibody) | 1 | 1
